Assay results taken from IntAct's records for PubMed 12591280.

B1: Actin nucleation-promoting factor WAS (Homo sapiens), P42768 (parent)
chain: MSGGPMGGRPGGRGAPAVQQNIPSTLLQDHENQRLFEMLGRKCLTLATAVVQLYLALPPGAEHWTKEHCGAVCFVKDNPQKSYFIRLYGLQAGRLLWEQELYSQLVYSTPTPFFHTFAGDDCQAGLNFADEDEAQAFRALVQEKIQKRNQRQSGDRRQLPPPPTPANEERRGGLPPLPLHPGGDQGGPPVGPLSLGLATVDIQNPDITSSRYRGLPAPGPSPADKKRSGKKKISKADIGAPSGFKHVSHVGWDPQNGFDVNNLDPDLRSLFSRAGISEAQLTDAETSKLIYDFIEDQGGLEAVRQEMRRQEPLPPPPPPSRGGNQLPRPPIVGGNKGRSGPLPPVPLGIAPPPPTPRGPPPPGRGGPPPPPPPATGRSGPLPPPPPGAGGPPMPPPPPPPPPPPSSGNGPAPPPLPPALVPAGGLAPGGGRGALLDQIRQGIQLNKTPGAPESSALQPPPQSSEGLVGALMHVMQKRSRAIHSSDEGEDQAGDEDEDDEWDD

Tests used:
[1] = variants of: B1; settings: with wipf1_human WIPF1, O43516
[2] = variants of: B1; settings: with wipf1_human WIPF1, O43516; remark: listed apart in the source

Sequence of wipf1_human WIPF1, O43516 (O43516 whole entry): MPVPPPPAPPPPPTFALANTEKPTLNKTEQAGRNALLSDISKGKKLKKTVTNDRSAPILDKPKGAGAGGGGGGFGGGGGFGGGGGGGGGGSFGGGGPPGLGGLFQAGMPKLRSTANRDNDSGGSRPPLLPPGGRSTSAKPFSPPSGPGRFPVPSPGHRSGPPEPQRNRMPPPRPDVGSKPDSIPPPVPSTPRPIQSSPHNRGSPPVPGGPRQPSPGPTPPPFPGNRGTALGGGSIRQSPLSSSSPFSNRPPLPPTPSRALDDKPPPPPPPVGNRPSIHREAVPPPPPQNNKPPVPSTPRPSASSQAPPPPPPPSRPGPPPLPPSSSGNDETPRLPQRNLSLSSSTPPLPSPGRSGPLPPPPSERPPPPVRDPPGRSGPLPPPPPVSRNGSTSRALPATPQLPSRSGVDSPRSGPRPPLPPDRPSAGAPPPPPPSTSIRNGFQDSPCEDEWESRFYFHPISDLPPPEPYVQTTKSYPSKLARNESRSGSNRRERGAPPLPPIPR

Variant	effect of a mutation on the interaction [1]	effect of a mutation on the interaction [2]
A134T	disrupting interaction strength	
R138A	with no effect	increasing interaction strength

Next, values leading:

effect of a mutation on the interaction [1]	effect of a mutation on the interaction [2]	Variant
disrupting interaction strength	decreasing interaction strength	R138P
with no effect	increasing interaction strength	R138E
